Residue numbers refer to the chain shown, from its start.
Legend:
Conditions in all cases: tags: R&D Systems; chain copies: 2
[1] = biological target: T1, NGF (nerve growth factor) (Homo sapiens, UniProt P01138 P01138:122-241); experiment: cell_activity; neurite; TF-1 >0.1
NT-3 (neurotrophin-3) = biological target: T2, NT-3 (neurotrophin-3) (Homo sapiens, UniProt P20783 P20783:139-257); experiment: SPR; scarcely bound
T2 sequence: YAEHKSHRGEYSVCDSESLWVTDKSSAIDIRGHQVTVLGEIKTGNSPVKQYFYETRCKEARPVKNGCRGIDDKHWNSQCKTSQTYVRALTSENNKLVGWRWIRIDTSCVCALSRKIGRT
Procedure: (§1) The binding activity of these shortened forms to NGF and NT-3 was measured by the surface plasmon resonance method. For the measurement method, BIAcore2000 manufactured by BIAcore was used and CM5 reactive with amino group was used as a sensorchip, as shown in Example 1. The protein was immobilized in the same manner as in Example 1 by using ethyl-3-carbodiimide hydrochloride and N-hydroxysuccinimide. […] After protein immobilization, blocking with ethanolamine-HCl was performed. The amount of immobilized NGF and NT-3 was 3,000-4,000 RU and 3,000-5,000 RU, respectively. The aptamer for an analyte was prepared to 0.15 μM-0.5 μM. The running buffer and regeneration solution were the same as those in Example 1. NT-3 was immobilized on FC2, and NGF on FC3, and the final sensorgram was obtained by subtracting the results of FC1.
(§2) Then, the aptamers were subjected to shortening to 40 mer in the same manner as with consensus secondary structure 1. […] NT-4 was measured in the same manner as in NT-3.
(§3) The shortened sequences were measured for the binding to NGF, NT-3, NT-4 by the surface plasmon resonance method. The measurement was performed in the same manner as in Example 13.

NT-4 (neurotrophin-4) [2] = biological target: T3, NT-4 (neurotrophin-4) (Homo sapiens, UniProt P34130 P34130:81-210); experiment: SPR; scarcely bound
T3 sequence: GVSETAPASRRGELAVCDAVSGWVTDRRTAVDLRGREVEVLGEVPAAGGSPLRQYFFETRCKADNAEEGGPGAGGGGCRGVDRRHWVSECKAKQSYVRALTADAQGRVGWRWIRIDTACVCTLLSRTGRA
Procedure: as §1, §2, §3

[3] = biological target: T1, NGF (nerve growth factor); experiment: cell_activity; neurite; TF-1 >1
NT-4 (neurotrophin-4) [4] = biological target: T3, NT-4 (neurotrophin-4); experiment: cell_activity; TF-1
Source text: Using TF-1 cells, whether NGF aptamer inhibits BDNF, NT-3, NT-4 was examined. Human receptor genes (TrkB, TrkC, p75) for respective neurotrophic factors were introduced into TF-1 cells (ATCC Number: CRL-2003), which is a human erythroleukemic cell line, by using a retrovirus vector to give cells that highly express these receptors stably. TF-1 cells introduced with TrkB and p75 were used for the evaluation of inhibitory activity against BDNF, TF-1 cells introduced with TrkC and p75 were used for the evaluation against NT-3, and TF-1 cells introduced with TrkB alone were used for the evaluation against NT-4. These cells were suspended in an RPMI-1640 medium containing 20% fetal bovine serum, and seeded in a white 96 well flat-bottom plate at 1000 cells (50 μL) per well. Thereto was added a mixed solution 50 μL of human BDNF (final concentration 0.074 nM) or NT-3 (final concentration 0.074 nM) or NT-4 (final concentration 0.071 nM) and the aptamer (final concentration 1 μM-0.01 nM), which had been pre-reacted at room temperature for 30 min in a serum-free RPMI-1640 medium, 3 days later, 100 μL of CellTiter-Glo reagent for CellTiter-Glo Luminescent Cell Viability Assay (manufactured by Promega) was added to each well, chemiluminescence was measured by a microplate reader. With the amount of luminescence per well obtained by the addition of BDNF or NT-3 or NT-4 alone and culture of the cells for 3 days as inhibitory activity 0%, and that of the well obtained by culture for 3 days without addition of BDNF or NT-3 or NT-4 as inhibitory activity 100%, the inhibitory activity of the aptamer was calculated from the amount of luminescence per well obtained by culturing with the addition of BDNF or NT-3 or NT-4 and the aptamer in mixture. When the inhibitory activity was 0 or below, ‘0%’ is indicated. The 50% inhibitory concentration (IC₅₀) was determined from the concentrations at two, above and below points sandwiching the 50% inhibitory activity. An IC₅₀ value indicated as “>X” means that the inhibitory activity was not more than 50% when the indicated concentration X was the maximum measured concentration. N.D. means not measured.

[5] = biological target: T1, NGF (nerve growth factor); experiment: cell_activity; neurite; TF-1 <0.1
[6] = biological target: T1, NGF (nerve growth factor); experiment: cell_activity; neurite
Procedure: The cells (2500 cells per well) were cultured for one day in an RPMI-1640 medium containing 2.5% horse serum and 1.25% fetal bovine serum in a 96 well flat-bottom plate coated with collagen type IV. […] Two days later, the cytoplasm and nuclei were stained using Cellomics Neurite Outgrowth Kit (manufactured by Thermo Scientific), and neurite length per cell was measured by Cellomics ArrayScan VTI (manufactured by Thermo Scientific). With the neurite length per cell obtained by the addition of NGF alone as inhibitory activity 0%, and that of the cell obtained by NGF free culture for 2 days as inhibitory activity 100%, the inhibitory activity of the aptamer was calculated from the neurite length per cell obtained by culturing with the addition of NGF and the aptamer in mixture.

T1 sequence (P01138 122-241, one chain of several): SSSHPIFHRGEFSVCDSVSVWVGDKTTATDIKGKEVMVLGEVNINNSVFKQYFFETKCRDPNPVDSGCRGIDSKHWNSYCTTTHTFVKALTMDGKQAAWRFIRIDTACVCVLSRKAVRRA

B1: SEQ ID NO: 82(14) (ssRNA)
RNA: GGGUCCUGGAUAAGAGUUUCCGUCUCGUAUCCUGUUACCC
modifications: as 82(1) except 2'-OMe U33
IC50 [1]: 294 pM

B2: SEQ ID NO: 82(38) (ssRNA)
RNA: B1 RNA
modifications: as 82(25) except dU18
IC50 [1]: 295 pM

B3: SEQ ID NO: 82(31) (ssRNA)
RNA: B1 RNA
modifications: as 82(1) except dC24
IC50 [1]: 276 pM

B4: SEQ ID NO: 82(43) (ssRNA)
RNA: B1 RNA
modifications: as 82(25) except 2'-OMe A13
IC50 [1]: 88 pM

B5: SEQ ID NO: 82(39) (ssRNA)
RNA: B1 RNA
modifications: as 82(25) except dU19
IC50 [1]: 256 pM

B6: SEQ ID NO: 82(19) (ssRNA)
RNA: B1 RNA
modifications: as 82(1) except 2'-OMe U4,C6,U11,C20,C21,C26,U28,U30,C31,C32,U35,C38-40
IC50 [1]: 291 pM

B7: SEQ ID NO: 159 (ssRNA)
RNA: B1 RNA with U36T
modifications: as 82(1) except dT36
IC50 [1]: 264 pM

B8: SEQ ID NO: 82(44) (ssRNA)
RNA: B1 RNA
modifications: as 82(25) except 2'-OMe A12
IC50 [1]: 97 pM

B9: SEQ ID NO: 157 (ssRNA)
RNA: B1 RNA with U18T
modifications: as 82(1) except dT18
IC50 [1]: 299 pM

B10: SEQ ID NO: 168 (ssRNA)
RNA: B1 RNA with U17T, U33T
modifications: as 82(48) except dU7,dT17,dT33,dU36
IC50 [1]: 261 pM

B11: SEQ ID NO: 82(30) (ssRNA)
RNA: B1 RNA
modifications: as 82(1) except dC20
IC50 [1]: 244 pM

B12: SEQ ID NO: 105 (ssRNA)
RNA: GGGUCCUGUUGCUAAGUUUCCGUCUUAGUGACUGUUACCC
modifications: 2'-F C/U, dA, 2'-OH G
binding result (NT-3 (neurotrophin-3)): no binding
binding result (NT-4 (neurotrophin-4) [2]): no binding
IC50 [3]: 444 pM

B13: SEQ ID NO: 87(1) (ssRNA)
RNA: GGGUCCUGCUCAAGAGUUUCCGUCUCGUGGGCUGUUACCC
modifications: 2'-OMe G1-3,C38-40; other C/U 2'-F, G 2'-OH, dA; 5',3' idT
IC50 (NT-4 (neurotrophin-4) [4]): < 100000 pM
IC50 [5]: 173 pM

B14: SEQ ID NO: 88(2) (ssRNA)
RNA: B13 RNA with C9U, G30A, G31A
modifications: 2'-OMe G1-3,C38-40; other C/U 2'-F, G 2'-OH, dA; 5',3' idT
IC50 [5]: 241 pM

B15: SEQ ID NO: 88(3) (ssRNA)
RNA: B13 RNA with C9U, G30A, G31A
modifications: 2'-OMe G1-3,U4,C6,G14,G16,C21,G22,U23,C26,G27,U28,C32,U35,C38-40; other C/U 2'-F, G 2'-OH, dA; 5',3' idT
IC50 [5]: 106 pM

B16: SEQ ID NO: 88(1) (ssRNA)
RNA: B13 RNA with C9U, G30A, G31A
modifications: 2'-OMe C38-40; other C/U 2'-F, G 2'-OH, dA; 5',3' idT
IC50 (NT-4 (neurotrophin-4) [4]): < 100000 pM
IC50 [5]: 241 pM

B17: SEQ ID NO: 87(3) (ssRNA)
RNA: B13 RNA
modifications: as 87(2) plus 2'-OMe G29-31
IC50 [5]: 118 pM

B18: SEQ ID NO: 88(4) (ssRNA)
RNA: B13 RNA with C9U, G30A, G31A
modifications: as 88(3) plus 2'-OMe U9,U10,C11,G29
IC50 (NT-4 (neurotrophin-4) [4]): 300000 pM
IC50 [5]: 111 pM

B19: SEQ ID NO: 87(4) (ssRNA)
RNA: B13 RNA
modifications: as 87(2) plus 2'-OMe C9,U10,C11,G29-31
IC50 [5]: 113 pM

B20: SEQ ID NO: 87(2) (ssRNA)
RNA: B13 RNA
modifications: 2'-OMe G1-3,U4,C6,G14,G16,C21,G22,U23,C26,G27,U28,C32,U35,C38-40; other C/U 2'-F, G 2'-OH, dA; 5',3' idT
IC50 [5]: 107 pM

B21: SEQ ID NO: 89(1) (ssRNA)
RNA: GGGUCCUGUGGAAGAGUUUCCGUCUCGUCCACUGUUACCC
modifications: 2'-OMe G1-3,C38-40; other C/U 2'-F, G 2'-OH, dA; 5',3' idT
IC50 [5]: 246 pM

B22: SEQ ID NO: 89(2) (ssRNA)
RNA: B21 RNA
modifications: 2'-OMe G1-3,C6,G14,G16,C21,G22,U23,C26,G27,U28,C32,U35,C38-40; other C/U 2'-F, G 2'-OH, dA; 5',3' idT
IC50 [5]: 103 pM

B23: SEQ ID NO: 89(4) (ssRNA)
RNA: B21 RNA
modifications: as 89(2) plus 2'-OMe U9,G10,G11,C29,C30
IC50 (NT-4 (neurotrophin-4) [4]): 271000 pM
IC50 [5]: < 100 pM

B24: SEQ ID NO: 89(3) (ssRNA)
RNA: B21 RNA
modifications: as 89(2) plus 2'-OMe G10,G11
IC50 [5]: 122 pM

B25: SEQ ID NO: 104 (ssRNA)
RNA: GGGUCCUGAUGUCAAGUUUCCGUCUUGAUGUCUGUUACCC
modifications: 2'-F C/U, dA, 2'-OH G
binding result (NT-3 (neurotrophin-3)): no binding
binding result (NT-4 (neurotrophin-4) [2]): no binding
IC50 [3]: 682 pM

B26: SEQ ID NO: 103 (ssRNA)
RNA: GGGUCCUGCUGCGUAGUUUCCGUCUGCGUGGUUGUUACCC
modifications: 2'-F C/U, dA, 2'-OH G
binding result (NT-3 (neurotrophin-3)): no binding
binding result (NT-4 (neurotrophin-4) [2]): no binding
IC50 [3]: 766 pM

B27: SEQ ID NO: 109 (ssRNA)
RNA: B26 RNA with G22U, U32C
modifications: 2'-F C/U, dA, 2'-OH G
binding result (NT-3 (neurotrophin-3)): no binding
binding result (NT-4 (neurotrophin-4) [2]): no binding
IC50 [3]: 687 pM

B28: SEQ ID NO: 107 (ssRNA)
RNA: B26 RNA with U14A, G26U, U32C
modifications: 2'-F C/U, dA, 2'-OH G
binding result (NT-3 (neurotrophin-3)): no binding
binding result (NT-4 (neurotrophin-4) [2]): no binding
IC50 [3]: 967 pM

B29: SEQ ID NO: 151 (ssRNA)
RNA: B26 RNA with U32C
modifications: 2'-OMe G (G8,G26,G34 2'-OH), dA, 2'-F C/U; 5',3' idT
IC50 [6]: ≤ 1000 pM

B30: SEQ ID NO: 113 (ssRNA)
RNA: B26 RNA with C12U, G28A
modifications: 2'-F C/U, dA, 2'-OH G
binding result (NT-3 (neurotrophin-3)): no binding
binding result (NT-4 (neurotrophin-4) [2]): no binding
IC50 [3]: 960 pM

B31: SEQ ID NO: 108 (ssRNA)
RNA: B26 RNA with C9U, G31A, U32C
modifications: 2'-F C/U, dA, 2'-OH G
binding result (NT-3 (neurotrophin-3)): no binding
binding result (NT-4 (neurotrophin-4) [2]): no binding
IC50 [3]: 403 pM

B32: SEQ ID NO: 106 (ssRNA)
RNA: B26 RNA with G30A, U32C
modifications: 2'-F C/U, dA, 2'-OH G
binding result (NT-3 (neurotrophin-3)): no binding
binding result (NT-4 (neurotrophin-4) [2]): no binding
IC50 [3]: 770 pM

B33: SEQ ID NO: 38(1) (ssRNA)
RNA: B26 RNA with G26U, U29C, U32C
modifications: 2'-OMe G (G8,G34 2'-OH), dA, 2'-F C/U; 5',3' idT
IC50 [6]: ≤ 1000 pM

B34: SEQ ID NO: 110 (ssRNA)
RNA: B26 RNA with U10C, U32C
modifications: 2'-F C/U, dA, 2'-OH G
binding result (NT-3 (neurotrophin-3)): no binding
binding result (NT-4 (neurotrophin-4) [2]): no binding
IC50 [3]: 999 pM

Source: patent US20140235701, “NGF APTAMER AND APPLICATION THEREOF” (RIBOMIC INC., published 2014)
